Assay results from patent US20050196402A1.

Target: FcRI on U937 cells (human) (UniProt P12314)
Assay: unlabeled protein competing with the same 125I-labeled protein for binding to IFN-γ-treated U937 cells

Chain of FcRI on U937 cells (human) (P12314 16-374): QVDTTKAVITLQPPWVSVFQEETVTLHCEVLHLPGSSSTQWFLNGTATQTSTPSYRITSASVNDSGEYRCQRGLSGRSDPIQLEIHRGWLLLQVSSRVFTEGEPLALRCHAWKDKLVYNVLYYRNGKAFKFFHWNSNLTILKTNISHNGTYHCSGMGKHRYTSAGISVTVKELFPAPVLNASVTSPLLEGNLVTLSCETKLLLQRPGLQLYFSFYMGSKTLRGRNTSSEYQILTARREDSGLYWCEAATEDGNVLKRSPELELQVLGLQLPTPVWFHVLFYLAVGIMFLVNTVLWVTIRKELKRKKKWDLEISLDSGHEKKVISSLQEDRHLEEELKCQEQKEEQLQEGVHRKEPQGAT

hCTLA4-IgG1 (from UniProt P16410 37-161) (Fc fusion)
IC50: 70 nM

human IgG1 (antibody)
IC50: 75 nM
